The source of these data is publication doi:10.1101/2024.10.29.620886.

Test [1] addresses Imdevimab diabody (human). Briefly: SEC.
For test [2], the target named is CR57 canonical diabody with a five amino acid linker 'GGGGS' between the VH and VL domains (human). Briefly: SEC. (SEC sorts molecules by how far they enter the pores of the column.)

As a reminder, the stoichiometry N is a count of units in the complex or per binding partner. Substance Imdevimab diabody registered a stoichiometry N in test [1] of 2. Regarding “CR57 canonical diabody with a five amino acid linker 'GGGGS' between the VH and VL domains”, the stoichiometry N in test [2] stood at 2.
